B1: Fab N1/F/R1 (purified soluble Fab) (Fab, V domains shown)
VH: EVQLVESGGGLVQPGGSLRLSCAASGFNIYSSYIHWVRQAPGKGLEWVASIYPYYGSTYYADSVKGRFTISADTSKNTAYLQMNSLRAEDTAVYYCARYAHFSVYGAMDYWGQGTLVTVSS
VL: DIQMTQSPSSLSASVGDRVTITCRASQSVSSAVAWYQQKPGKAPKLLIYSASSLYSGVPSRFSGSRSGTDFTLTISSLQPEDFATYYCQQWYGGYALFTFGQGTKVEIK
notes: light chain on the modified trastuzumab framework of Library-F (Persson et al., 2013); CDRs L1 and L2 fixed; clone reconstructed from NGS information; Fab heavy chain on the modified trastuzumab framework of Library-F; medium CDRH3 length; The Fab is detected by an anti-HIS antibody; source: E. coli BL21, purified (Protein-L resin)
B2: Fab N1/F/3 (purified soluble Fab) (Fab, V domains shown)
VH: EVQLVESGGGLVQPGGSLRLSCAASGFNLYSYYIHWVRQAPGKGLEWVASISSYYGYTSYADSVKGRFTISADTSKNTAYLQMNSLRAEDTAVYYCARYWHGALDYWGQGTLVTVSS
VL: DIQMTQSPSSLSASVGDRVTITCRASQSVSSAVAWYQQKPGKAPKLLIYSASSLYSGVPSRFSGSRSGTDFTLTISSLQPEDFATYYCQQGYFTYLFTFGQGTKVEIK
notes: light chain on the modified trastuzumab framework of Library-F (Persson et al., 2013); CDRs L1 and L2 fixed; Fab heavy chain on the modified trastuzumab framework of Library-F; short CDRH3; The Fab is detected by an anti-HIS antibody; source: E. coli BL21, purified (Protein-L resin)
B3: Fab N1/F/R2 (purified soluble Fab) (Fab, V domains shown)
VH: EVQLVESGGGLVQPGGSLRLSCAASGFNFSSSSIHWVRQAPGKGLEWVASIYSYYGYTYYADSVKGRFTISADTSKNTAYLQMNSLRAEDTAVYYCARSWWGGSWYAALDYWGQGTLVTVSS
VL: DIQMTQSPSSLSASVGDRVTITCRASQSVSSAVAWYQQKPGKAPKLLIYSASSLYSGVPSRFSGSRSGTDFTLTISSLQPEDFATYYCQQWWSLITFGQGTKVEIK
notes: as for B1
B4: Fab N1/F/R3 (purified soluble Fab) (Fab, V domains shown)
VH: EVQLVESGGGLVQPGGSLRLSCAASGFNIYSSYMHWVRQAPGKGLEWVASIYPYYGYTSYADSVKGRFTISADTSKNTAYLQMNSLRAEDTAVYYCARYFSYGPFYYGSGLDYWGQGTLVTVSS
VL: DIQMTQSPSSLSASVGDRVTITCRASQSVSSAVAWYQQKPGKAPKLLIYSASSLYSGVPSRFSGSRSGTDFTLTISSLQPEDFATYYCQQGFSLITFGQGTKVEIK
notes: as for B1
B5: Fab N1/F/R2 (Fab, V domains shown)
VH: EVQLVESGGGLVQPGGSLRLSCAASGFNFSSSSIHWVRQAPGKGLEWVASIYSYYGYTYYADSVKGRFTISADTSKNTAYLQMNSLRAEDTAVYYCARSWWGGSWYAALDYWGQGTLVTVSS
VL: DIQMTQSPSSLSASVGDRVTITCRASQSVSSAVAWYQQKPGKAPKLLIYSASSLYSGVPSRFSGSRSGTDFTLTISSLQPEDFATYYCQQWWSLITFGQGTKVEIK
notes: Library-F rare Fab reconstructed from NGS information, modified trastuzumab framework; Library-F rare Fab reconstructed from NGS information, modified trastuzumab framework, CDRs L1 and L2 fixed; The Fab has a His tag (detected with anti-HIS antibody and biosensors); Library-F framework: Persson et al., 2013; source: E. coli BL21, purified (Protein-L resin)

Columns and labels:
Conditions in all cases: both partners purified
[1] = target: T1, Jagged-2 receptor ectodomain (Homo sapiens (assumed), UniProt Q9Y219); experiment: ELISA; single-point Fab-ELISA for specificity: proteins immobilised at 5 ug/ml on MaxiSorp plates; purified Fab at 1 uM; detected with HRP-conjugated anti-HIS antibody, Abs450
T1 construct: Jagged-2 ectodomain; it may be an Fc fusion like the Notch proteins; also called J2
T1 sequence (Q9Y219 27-1080): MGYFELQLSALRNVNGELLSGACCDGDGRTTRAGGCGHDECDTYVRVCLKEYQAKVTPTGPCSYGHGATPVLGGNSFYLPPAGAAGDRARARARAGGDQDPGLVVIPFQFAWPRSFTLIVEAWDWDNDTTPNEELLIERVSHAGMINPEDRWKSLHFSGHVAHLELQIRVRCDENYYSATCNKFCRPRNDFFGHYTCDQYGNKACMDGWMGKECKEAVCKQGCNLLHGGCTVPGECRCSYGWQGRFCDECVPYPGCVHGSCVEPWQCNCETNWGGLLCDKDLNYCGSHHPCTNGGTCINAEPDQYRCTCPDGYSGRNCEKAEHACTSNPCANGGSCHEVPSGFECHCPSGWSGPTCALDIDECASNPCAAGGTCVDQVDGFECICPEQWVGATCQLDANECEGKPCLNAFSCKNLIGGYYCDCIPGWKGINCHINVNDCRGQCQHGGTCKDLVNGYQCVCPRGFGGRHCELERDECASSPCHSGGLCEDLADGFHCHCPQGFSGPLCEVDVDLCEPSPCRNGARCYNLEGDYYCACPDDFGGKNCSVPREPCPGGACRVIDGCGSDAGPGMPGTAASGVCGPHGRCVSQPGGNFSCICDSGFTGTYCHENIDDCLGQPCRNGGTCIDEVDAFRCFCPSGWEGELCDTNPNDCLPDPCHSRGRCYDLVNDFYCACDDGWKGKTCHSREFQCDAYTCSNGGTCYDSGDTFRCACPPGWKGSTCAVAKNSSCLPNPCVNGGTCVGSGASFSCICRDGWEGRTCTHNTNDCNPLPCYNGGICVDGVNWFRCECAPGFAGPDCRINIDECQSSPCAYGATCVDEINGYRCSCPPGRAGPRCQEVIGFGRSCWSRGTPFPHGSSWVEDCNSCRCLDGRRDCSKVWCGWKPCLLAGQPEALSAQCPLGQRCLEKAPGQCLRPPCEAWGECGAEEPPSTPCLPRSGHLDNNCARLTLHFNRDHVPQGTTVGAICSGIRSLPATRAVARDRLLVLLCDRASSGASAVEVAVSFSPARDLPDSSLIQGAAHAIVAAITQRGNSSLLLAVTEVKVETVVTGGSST

[2] = target: T2, recombinant Fc-tag-fused human Notch-1 extracellular domain (Homo sapiens, UniProt P46531); experiment: ELISA; multi-point Fab-ELISA: target immobilised at 5 ug/ml on MaxiSorp plates; purified Fab 0.01 nM-1 uM in PT for 30 min; detected with HRP-conjugated anti-HIS antibody; EC50 from a one-site specific-binding fit
T2 construct: Notch-1, human, extracellular domain; No catalogue number and no residue limits are printed; also called N1; source: bought: R&D Systems
T2 sequence (P46531 19-1735): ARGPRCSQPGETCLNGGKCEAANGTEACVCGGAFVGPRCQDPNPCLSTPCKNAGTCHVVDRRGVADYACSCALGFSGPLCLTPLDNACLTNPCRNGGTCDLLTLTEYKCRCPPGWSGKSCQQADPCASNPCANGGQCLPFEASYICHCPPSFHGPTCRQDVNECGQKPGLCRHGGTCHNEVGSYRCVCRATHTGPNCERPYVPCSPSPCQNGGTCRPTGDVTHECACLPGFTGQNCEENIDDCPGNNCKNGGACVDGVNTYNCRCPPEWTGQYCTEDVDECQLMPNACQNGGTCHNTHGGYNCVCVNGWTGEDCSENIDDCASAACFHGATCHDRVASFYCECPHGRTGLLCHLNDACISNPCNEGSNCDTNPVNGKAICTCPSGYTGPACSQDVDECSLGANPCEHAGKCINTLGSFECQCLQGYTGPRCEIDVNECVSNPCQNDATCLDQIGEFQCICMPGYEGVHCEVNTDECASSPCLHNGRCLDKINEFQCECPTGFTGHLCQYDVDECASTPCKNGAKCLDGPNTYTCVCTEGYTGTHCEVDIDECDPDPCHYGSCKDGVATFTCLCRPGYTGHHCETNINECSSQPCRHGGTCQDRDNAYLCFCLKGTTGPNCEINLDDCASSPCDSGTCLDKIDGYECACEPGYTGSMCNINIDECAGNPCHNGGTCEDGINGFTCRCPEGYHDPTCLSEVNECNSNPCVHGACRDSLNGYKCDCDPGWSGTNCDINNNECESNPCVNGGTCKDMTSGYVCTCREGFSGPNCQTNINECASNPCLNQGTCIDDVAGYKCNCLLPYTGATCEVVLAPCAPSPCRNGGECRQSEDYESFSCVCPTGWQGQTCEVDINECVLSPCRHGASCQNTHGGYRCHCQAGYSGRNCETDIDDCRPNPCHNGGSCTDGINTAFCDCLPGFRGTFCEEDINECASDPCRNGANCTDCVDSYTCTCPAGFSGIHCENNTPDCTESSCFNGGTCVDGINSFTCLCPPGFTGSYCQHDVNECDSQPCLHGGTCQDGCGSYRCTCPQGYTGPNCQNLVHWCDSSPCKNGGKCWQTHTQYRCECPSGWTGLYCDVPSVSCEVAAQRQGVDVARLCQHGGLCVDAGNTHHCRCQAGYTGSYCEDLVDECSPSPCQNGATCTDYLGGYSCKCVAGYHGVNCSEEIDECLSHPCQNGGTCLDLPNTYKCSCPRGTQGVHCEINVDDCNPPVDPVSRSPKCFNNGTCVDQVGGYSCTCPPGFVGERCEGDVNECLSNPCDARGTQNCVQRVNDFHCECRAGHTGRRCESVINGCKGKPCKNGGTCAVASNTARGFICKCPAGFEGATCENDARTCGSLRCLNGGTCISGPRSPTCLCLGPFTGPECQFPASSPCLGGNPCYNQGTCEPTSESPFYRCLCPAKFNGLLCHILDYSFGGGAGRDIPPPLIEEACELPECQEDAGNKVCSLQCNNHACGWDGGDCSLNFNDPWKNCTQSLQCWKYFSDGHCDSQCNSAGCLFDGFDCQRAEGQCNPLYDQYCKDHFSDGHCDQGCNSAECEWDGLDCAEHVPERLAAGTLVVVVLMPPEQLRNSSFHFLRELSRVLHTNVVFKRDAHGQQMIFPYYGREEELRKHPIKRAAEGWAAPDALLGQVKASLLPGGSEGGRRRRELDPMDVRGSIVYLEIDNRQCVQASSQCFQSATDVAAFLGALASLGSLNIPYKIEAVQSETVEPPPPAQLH

[3] = target: T2, recombinant Fc-tag-fused human Notch-1 …; experiment: BLI; Octet RED384; Fabs immobilised on amine-reactive generation-2 or anti-Fab CH1 biosensors, target proteins in solution at three or more concentrations; 25 C, PBS; global 1:1 fit; apparent KD (Fc-Notch proteins may dimerize, avidity)
[4] = target: T1, Jagged-2 receptor ectodomain; experiment: as above
[5] = target: T3, recombinant Fc-tag-fused human Notch-1 extracellular domain (Homo sapiens, UniProt P46531); experiment: BLI; Fabs immobilised on amine-reactive generation-2 or anti-Fab CH1 biosensors, target proteins in solution at at least three concentrations; 25°C, PBS; global fit to a 1:1 binding model; apparent constants (Fc fusions may dimerize)
T3 construct: Notch-1, human, extracellular domain; the R&D Systems product may hold only part of the ectodomain (surmise); also called N1; Fc-Notch; source: bought: R&D Systems
T3 sequence (P46531 19-1735): as above

[6] = target: T4, Jagged-2 receptor ectodomain (Homo sapiens (assumed), UniProt Q9Y219); experiment: as above
T4 construct: Jagged-2 ectodomain; Probably an Fc fusion like the Notch proteins (surmise); also called J2
T4 sequence (Q9Y219 27-1080): as the sequence (Q9Y219 27-1080) above

| Binder | binding result [1] | EC50 [2] | Kd [3] | Kd [4] | koff [5] | kon [5] | koff [6] | kon [6] |
| --- | --- | --- | --- | --- | --- | --- | --- | --- |
| B1 | binds | ~4 nM | 1.98 nM |  |  |  |  |  |
| B2 | binds | ~4 nM | 1.88 nM |  |  |  |  |  |
| B3 |  | ~4 nM | 1.38 nM | 70.4 ± 2.3 nM |  |  |  |  |
| B4 | binds | 37 nM | 6.6 nM |  |  |  |  |  |
| B5 |  |  |  |  | 6.91e-05 s⁻¹ | 54400 M⁻¹ s⁻¹ | 0.0226 s⁻¹ | 313000 M⁻¹ s⁻¹ |
